Results on four molecules are retold here after paper doi:10.1101/2025.07.02.662585 (bioRxiv, 2025).

T1: Avo3 (yeast (endogenous in yeast cells), UniProt P40061 1-1430)
T1 sequence: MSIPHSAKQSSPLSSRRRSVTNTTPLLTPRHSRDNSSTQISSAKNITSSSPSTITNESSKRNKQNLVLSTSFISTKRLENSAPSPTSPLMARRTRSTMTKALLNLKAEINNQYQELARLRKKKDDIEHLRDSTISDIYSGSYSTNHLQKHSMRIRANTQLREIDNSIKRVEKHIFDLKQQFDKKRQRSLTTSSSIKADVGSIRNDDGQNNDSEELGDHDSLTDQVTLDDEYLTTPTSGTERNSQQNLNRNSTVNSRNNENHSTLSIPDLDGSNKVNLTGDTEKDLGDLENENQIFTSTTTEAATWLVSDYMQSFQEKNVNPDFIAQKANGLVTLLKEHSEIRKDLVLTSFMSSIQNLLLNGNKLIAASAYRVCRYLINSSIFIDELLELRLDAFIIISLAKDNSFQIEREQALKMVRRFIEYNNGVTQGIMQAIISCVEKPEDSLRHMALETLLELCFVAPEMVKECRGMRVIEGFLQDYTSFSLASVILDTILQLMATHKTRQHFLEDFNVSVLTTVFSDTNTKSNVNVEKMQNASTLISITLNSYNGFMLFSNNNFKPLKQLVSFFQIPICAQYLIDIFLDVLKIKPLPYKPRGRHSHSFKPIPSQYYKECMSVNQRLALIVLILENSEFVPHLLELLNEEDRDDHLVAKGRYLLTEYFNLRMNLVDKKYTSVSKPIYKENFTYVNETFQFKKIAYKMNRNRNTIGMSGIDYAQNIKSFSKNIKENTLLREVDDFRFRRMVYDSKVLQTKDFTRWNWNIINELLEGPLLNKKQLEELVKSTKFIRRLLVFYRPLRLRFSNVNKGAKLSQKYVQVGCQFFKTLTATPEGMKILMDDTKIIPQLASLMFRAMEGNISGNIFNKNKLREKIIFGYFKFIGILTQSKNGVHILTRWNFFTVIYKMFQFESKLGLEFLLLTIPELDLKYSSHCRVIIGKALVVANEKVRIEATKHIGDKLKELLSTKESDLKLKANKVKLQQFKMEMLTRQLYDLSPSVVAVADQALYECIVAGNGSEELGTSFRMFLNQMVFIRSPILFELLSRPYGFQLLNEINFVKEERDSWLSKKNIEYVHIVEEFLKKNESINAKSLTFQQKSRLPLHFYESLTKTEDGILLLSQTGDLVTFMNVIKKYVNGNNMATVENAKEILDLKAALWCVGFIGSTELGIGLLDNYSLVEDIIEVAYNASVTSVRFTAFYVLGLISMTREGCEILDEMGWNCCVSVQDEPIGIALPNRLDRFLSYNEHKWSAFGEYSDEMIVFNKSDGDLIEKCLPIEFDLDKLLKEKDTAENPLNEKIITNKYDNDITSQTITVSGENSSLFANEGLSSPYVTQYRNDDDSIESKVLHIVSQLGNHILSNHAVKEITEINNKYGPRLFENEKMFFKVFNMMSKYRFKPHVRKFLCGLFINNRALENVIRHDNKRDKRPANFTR

B1: Avo2 (natural protein)
chain: MLKEPSVRLREAIIEGNLLIVKRLLRRNPDLLTNIDSENGWSSLHYASYHGRYLICVYLIQLGHDKHELIKTFKGNTCVHLALMKGHEQTLHLLLQQFPRFINHRGENGRAPIHIACMNDYYQCLSLLIGVGADLWVMDTNGDTPLHVCLEYGSISCMKMLLNEGEVSLDDNVRDKGNWKPIDVAQTFEVGNIYSKVLKEVKKKGPPLGAGKKPSSFRTPILNAKATFEDGPSPVLSMNSPYSLYSNNSPLPVLPRRISTHTTSGNGGNRRSSITNPVFNPRKPTLSTDSFSSSSNSSSRLRVNSINVKTPVGVSPKKELVSESVRHSATPTSPHNNIALINRYLLPNKSNDNVRGDSQTATINDDGGGGNGGDATIGMGLRKDPDDENENKYKIKVNNGEPRRRVSLLNIPISKLRNSNNTRAED
B2: Avo1 (natural protein)
chain: MDTVTVLNELRAQFLRVCPEKDQMKRIIKPYIPVDEFNTEQCLDSSIRELYMNSDGVSLLPELESPPVSKDFMENYASLGKMRIMRENEGQKGKANQNLIGAEKTERDEEETRNLQDKSAKNTLIVEENGTLRYNPLNSSASNSLLNDDDHTSGKHHKTSSKEDSYLNSSMEMQKKSSKRSSLPFVRIFKSRRDHSNTSGNKNVMNTTNTRAKSSTLHPPGARHNKKGSKFDMNFDFDENLEEEDDDDDDDEEGDDIHSQFFQLDDDFDAKGSGASPAHKGINGMSNNKNNTYTNNRNSISILDDRESSNGNIGSASRLKSHFPTSQKGKIFLTDNKNDGQKSDSLNANKGIHGDGSSASGNGSVSRDGLTETESNNISDMESYINEKDLDDLNFDTVTSNINKTVSDLGGHESTNDGTAVMNRDSKDSRSNSNEFNAQNRDRITPGSSYGKSLLGSEYSEERYSNNDSSTMESGEMSLDSDMQTNTIPSHSIPMSMQKYGIYHGDDDSTLNNVFDKAVLTMNSSRHPKERRDTVISGKEPTSLTSSNRKFSVSSNLTSTRSPLLRGHGRTSSTASSEHMKAPKVSDSVLHRARKSTLTLKQDHSQPSVPSSVHKSSKEGNILIEKTTDYLVSKPKASQLSNMFNKKKKRTNTNSVDVLEYFSFVCGDKVPNYESMGLEIYIQASKKYKRNSFTTKVRKSSTIFEVIGFALFLYSTEKKPDNFEEDGLTVEDISNPNNFSLKIVDEDGEPFEDNFGKLDRKSTIQSISDSEVVLCKVDDAEKSQNEIETPLPFETGGGLMDASTLDANSSHDTTDGTINQLSFYKPIIGNEDDIDKTNGSKIIDVTVYLYPNVNPKFNYTTISVLVTSHINDILVKYCKMKNMDPNEYALKVLGKNYILDLNDTVLRLDGINKVELISKKDARELHLEKMKPDLKKPVLPTIQSNDLTPLTLEPLNSYLKADAGGAVAAIPENTKVTSKAKKISTKYKLGLAKQHSSSSVASGSVSTAGGLANGNGFFKNKNSSKSSLHGTLQFHNINRSQSTMEHTPDTPNGVGDNFQDLFTGAYHKYKVWRRQQMSFINKHERTLAIDGDYIYIVPPEGRIHWHDNVKTKSLHISQVVLVKKSKRVPEHFKIFVRREGQDDIKRYYFEAVSGQECTEIVTRLQNLLSAYRMNHK
B3: Bit61 (natural protein)
chain: MTAEDILLRERTSTTTQRPVNSEQYLNVQLATAPVKNFQTTSEISRQTLVDTSNDDVYSIKNLKGSRNPISPSVSNVGFQSIFHTVDHPRSKVSVASNHSLRSNDNASAATSKSGSSQIGESHSVDTVECSNNLSKKLSSDAISITQKSLHSTPSGRYMKGKASGFFNRRNRAHTTISSDPASFLTDSSTLHNSSHSFRNVIKNFFQNKSHRHIGQDAIEPAIPNSLSKFLHSSYGRHKSPSQFIHTNAGQLVDSGTSVYSLNVNPSGVNPNTIVEDPLSGTDPASPNPVSMLHDLLRNLPSLEANYKHFNSQELTTLTNNIWNIFCSNVAELFRTQRIWKLRAKIENFNEVLEFYCILKTDPRVTHSGMNRIISDLKEFLVSSLYNLENQIVFNYSNEDTINNALKRLGVIWRIFYQEVYYDLAAVLLPLDQSIREDGNSTVLKSGNESRTHINGNYSIGFLLLMCFRDSIVLPCYENFVNSNDGISKSFQLYIFNQEEESNVTETDKLTLLQCFGILSTIQSNDRNQRIIEELLAGIRMSI
B4: Lst8 (natural protein)
chain: MSVILVSAGYDHTIRFWEALTGVCSRTIQHSDSQVNRLEITNDKKLLATAGHQNVRLYDIRTTNPNPVASFEGHRGNVTSVSFQQDNRWMVTSSEDGTIKVWDVRSPSIPRNYKHNAPVNEVVIHPNQGELISCDRDGNIRIWDLGENQCTHQLTPEDDTSLQSLSMASDGSMLAAANTKGNCYVWEMPNHTDASHLKPVTKFRAHSTYITRILLSSDVKHLATCSADHTARVWSIDDDFKLETTLDGHQRWVWDCAFSADSAYLVTASSDHYVRLWDLSTREIVRQYGGHHKGAVCVALNDV

One experiment addresses T1, Avo3. Put plainly: cryo-EM structure.
The experiment “Avo1” has as its target B2. Put plainly: cryo-EM structure.

As for B1, the binding result in the experiment with Avo3 is recorded as “binds”.

On to B2, for which the binding result with Avo3 was “binds”.

B3: the binding result in the experiment with Avo3 is “binds”.

In the case of B4, the binding result with Avo1 is on record as “binds”.
